Experimental data taken from patent US12616740B2, “Methods of using a GIP/GLP1 co-agonist for therapy” (ELI LILLY AND COMPANY, priority 2018, dated 2026).

Assays:
Format in all cases: in vivo, human
[1] = system: patients with T2DM who have inadequate glycemic control; assay: Phase 2 clinical study NCT03131687 (26 weeks): patients reaching HbA1c target; settings: dulaglutide 1.5 mg once weekly
Experimental: (§1) Clinical Study (NCT03131687) Supporting Maintenance Dose Embodiments A 6-month (26-week) Phase 2 double-blind clinical study is designed to evaluate the safety, efficacy, and PK/PD of 4 dose levels (1 mg, 5 mg, 10 mg and 15 mg respectively) of tirzepatide once weekly by subcutaneous injection compared with dulaglutide 1.5 mg. once weekly (QW) and placebo QW in patients with T2DM who have inadequate glycemic control with diet and exercise with or without a stable dose of metformin. Tirzepatide dose is up-titrated to the maintenance dose using the following weekly dose increments:
(§2) The study also has a 4-week follow up period. In addition to safety and efficacy for treating T2DM, efficacy endpoints include the effect of tirzepatide on HbA1c, FBG, body weight, lipids, and waist circumference compared with placebo and with dulaglutide 1.5 mg. The study also evaluates the effect of tirzepatide on GI tolerability, hypoglycemia, hypersensitivity reactions, and pancreatic safety, as well as the development of treatment-emergent anti-drug antibodies. Model-based dose response analyses are performed to predict potential for significant HbA1c lowering and weight loss in longer studies. Statistical Analyses: Efficacy: The primary efficacy outcome of HbA1c change from baseline to the 26-week endpoint is analyzed using a Bayesian dose-response model. Analyses are performed on the intention to treat population (mITT) analysis set. Supportive analysis of the primary efficacy outcome for the mITT dataset are the model for post-baseline measures (MMRM) with body mass index (BMI) (<30 kg/m^2, ≥30 kg/m^2), metformin use, treatment, visit, and treatment-by-visit interaction as fixed effects, baseline HbA1c as a covariate, and patient as a random effect. The mean weight change from baseline at 12 and 26 weeks, along with the mean change from baseline of HbA1c at 12 weeks, is analyzed using similar dose-response models as the primary analyses. The percentages of patients with ≥5% or ≥10% body weight loss, reaching the HbA1c target of ≤6.5% or ≤7.0% at 26 weeks, or requiring rescue therapy are analyzed using logistic regression with fixed effects of treatment and strata, and baseline as a covariate. The changes from baseline in FBG (fasting blood glucose), SMBG (self-monitored blood glucose) levels, waist circumference, and mean percentage change in lipids from baseline to 12 and 26 weeks are analyzed using a similar MMRM to the one used for the primary analyses. Table Abbreviations: Dula 1.5 mg=dulaglutide 1.5 mg once weekly; LY means tirzepatide, and LY 1 mg=tirzepatide 1 mg once weekly; LY 5 mg=5 mg once weekly; LY 10 mg=escalation dose group tirzepatide once weekly with highest dose of 10 mg; LY 15 mg=escalation dose group of tirzepatide once weekly with highest dose 15 mg; LOCF=last observation-carried-forward; N=number of patients; pbo=placebo; Week 26=mITT on-treatment data at Week 26 excluding data after study drug discontinuation or rescue drug initiation; mITT=modified intent-to-treat; SD=standard deviation. For Table 4, n=number of patients in the population with baseline and post-baseline value at the specified time point. For Table 6, LY10 mg=escalation dose group tirzepatide, once weekly with highest dose of 10 mg; escalation dose: (5 mg weeks 0 and 1), LY15 mg=escalation dose group tirzepatide, once weekly with highest dose of 15 mg; escalation dose: (5 mg weeks 0 and 1; 10 mg weeks 2 to 5); N=number of patients in specified group, m=number of patients who experienced new event during interval, FolUp=follow up, T/Wk=Time range, (week) and %=means percent patients spending at least some time in treatment group who experienced new event during interval. For Table 7, n is the number of patients with events meeting the criteria; N is number of patients in the population; % is percent of patients in treatment group experiencing the event.

[2] = NCT03131687: nausea, vomiting and diarrhea, new events per interval; settings: dulaglutide 1.5 mg once weekly, N = 54
Experimental: as §1, §2

[3] = NCT03131687: weight loss at Week 26; settings: dulaglutide 1.5 mg once weekly
Experimental: as §1, §2

[4] = system: patients with T2DM who have inadequate glycemic control; assay: NCT03131687: mean fasting glucose at Week 26; parameters: Mean change from baseline, fasting glucose: unit not given here; settings: dulaglutide 1.5 mg once weekly, N 46
Experimental: as §1, §2

[5] = NCT03131687: decrease appetite (reported event); settings: dulaglutide 1.5 mg once weekly, N = 54
Experimental: as §1, §2

[6] = second line, analysis set not given (not LOCF)

In the case of dulaglutide [reference compound], the “% of Patients Reaching HbA1c Target <5.7%” value ([1]; LOCF Week 26 (N = 54)) is reported as 1.9%, the “% of Patients Reaching HbA1c Target <6%” value ([1]; LOCF Week 26 (N = 54)) is reported as 11.1% and the “odds ratio vs. placebo, Patients Reaching HbA1c Target <5.7%” value ([1]; LOCF Week 26 (N = 54)) is reported as 1.0. For the same substance, the “odds ratio vs. placebo, Patients Reaching HbA1c Target <6%” value ([1]; LOCF Week 26 (N = 54)) was 4.5, the “% of Patients Reaching HbA1c Target <5.7%” value ([1]; mITT Week 26 (N = 47)) was 2.1% and the “% of Patients Reaching HbA1c Target <6%” value ([1]; mITT Week 26 (N = 47)) was 12.8%. The “odds ratio vs. placebo, Patients Reaching HbA1c Target <5.7%” value ([1]; mITT Week 26 (N = 47)) was 0.89, the “odds ratio vs. placebo, Patients Reaching HbA1c Target <6%” value ([1]; mITT Week 26 (N = 47)) was 4.5 and the “Nausea Vomiting and Diarrhea: % patients who experienced new event during interval” value ([2]; Fol Up (follow up)) was 5.9%. The “Nausea Vomiting and Diarrhea: m, number of patients who experienced new event during interval” value ([2]; Fol Up (follow up)) was 3, the “Nausea Vomiting and Diarrhea: % patients who experienced new event during interval” value ([2]; T/Wk 0) was 22.2% and the “Nausea Vomiting and Diarrhea: m, number of patients who experienced new event during interval” value ([2]; T/Wk 0) was 12. The “Nausea Vomiting and Diarrhea: % patients who experienced new event during interval” value ([2]; T/Wk 1) was 3.7%, the “Nausea Vomiting and Diarrhea: m, number of patients who experienced new event during interval” value ([2]; T/Wk 1) was 2 and the “Nausea Vomiting and Diarrhea: % patients who experienced new event during interval” value ([2]; T/Wk 2) was 0.0%. The “Nausea Vomiting and Diarrhea: m, number of patients who experienced new event during interval” value ([2]; T/Wk 2) was 0, the “Nausea Vomiting and Diarrhea: % patients who experienced new event during interval” value ([2]; T/Wk 3) was 3.8% and the “Nausea Vomiting and Diarrhea: m, number of patients who experienced new event during interval” value ([2]; T/Wk 3) was 2. For the same substance, the “Nausea Vomiting and Diarrhea: % patients who experienced new event during interval” value ([2]; T/Wk 4) was 1.9%, the “Nausea Vomiting and Diarrhea: m, number of patients who experienced new event during interval” value ([2]; T/Wk 4) was 1 and the “Nausea Vomiting and Diarrhea: % patients who experienced new event during interval” value ([2]; T/Wk 5) was 0.0%. For the same substance, the “Nausea Vomiting and Diarrhea: m, number of patients who experienced new event during interval” value ([2]; T/Wk 5) was 0, the “Nausea Vomiting and Diarrhea: % patients who experienced new event during interval” value ([2]; T/Wk 6) was 0.0% and the “Nausea Vomiting and Diarrhea: m, number of patients who experienced new event during interval” value ([2]; T/Wk 6) was 0. For the same substance, the “Nausea Vomiting and Diarrhea: % patients who experienced new event during interval” value ([2]; T/Wk 7) was 1.9%, the “Nausea Vomiting and Diarrhea: m, number of patients who experienced new event during interval” value ([2]; T/Wk 7) was 1 and the “Nausea Vomiting and Diarrhea: % patients who experienced new event during interval” value ([2]; T/Wk 8) was 0.0%. For the same substance, the “Nausea Vomiting and Diarrhea: m, number of patients who experienced new event during interval” value ([2]; T/Wk 8) was 0, the “Nausea Vomiting and Diarrhea: % patients who experienced new event during interval” value ([2]; T/Wk 9) was 1.9% and the “Nausea Vomiting and Diarrhea: m, number of patients who experienced new event during interval” value ([2]; T/Wk 9) was 1. For the same substance, the “Nausea Vomiting and Diarrhea: % patients who experienced new event during interval” value ([2]; T/Wk 10) was 0.0%, the “Nausea Vomiting and Diarrhea: m, number of patients who experienced new event during interval” value ([2]; T/Wk 10) was 0 and the “Nausea Vomiting and Diarrhea: % patients who experienced new event during interval” value ([2]; T/Wk 11) was 0.0%. The “Nausea Vomiting and Diarrhea: m, number of patients who experienced new event during interval” value ([2]; T/Wk 11) was 0, the “Nausea Vomiting and Diarrhea: % patients who experienced new event during interval” value ([2]; T/Wk 12) was 2.0% and the “Nausea Vomiting and Diarrhea: m, number of patients who experienced new event during interval” value ([2]; T/Wk 12) was 1. The “Nausea Vomiting and Diarrhea: % patients who experienced new event during interval” value ([2]; T/Wk >12 < 16) was 3.9%, the “Nausea Vomiting and Diarrhea: m, number of patients who experienced new event during interval” value ([2]; T/Wk >12 < 16) was 2 and the “Nausea Vomiting and Diarrhea: % patients who experienced new event during interval” value ([2]; T/Wk >16 ≤ 20) was 2.0%. For the same substance, the “Nausea Vomiting and Diarrhea: m, number of patients who experienced new event during interval” value ([2]; T/Wk >16 ≤ 20) was 1, the “Nausea Vomiting and Diarrhea: % patients who experienced new event during interval” value ([2]; T/Wk >20) was 7.8% and the “Nausea Vomiting and Diarrhea: m, number of patients who experienced new event during interval” value ([2]; T/Wk >20) was 4. The “% of Patients Achieving Weight loss ≥10%” value ([3]; LOCF) was 9.3%, the “odds ratio vs. placebo, Weight loss ≥10%” value ([3]; LOCF) was 11.7 and the “% of Patients Achieving Weight loss ≥10%” value [3, 6] was 10.6%. The “% of Patients Achieving Weight loss ≥15%” value [3, 6] was 2.1%, the “odds ratio vs. placebo, Weight loss ≥10%” value [3, 6] was 10.4 and the “Mean change from baseline, fasting glucose” value [4] was −34.9. The “Mean glucose value (fasting)” value [4] was 140.5 mg/dL, the “Decrease Appetite (reported): n, number of patients with events” value [5] was “n = 3;” and the “Decrease Appetite (reported): percent of patients in treatment group experiencing the event” value [5] was 5.6%.
